# Experiments:
# HLA-A*02:50 = assay: IEDB peptide-MHC binding, purified MHC/competitive/fluorescence; filed as Kd, often an IC50 or EC50 that approximates it; ≥ and ≤ were set here for values at or beyond the usual limits of such assays
# HLA-A*02:12 = assay: IEDB peptide-MHC binding, purified MHC/direct/fluorescence; filed as Kd, often an IC50 or EC50 that approximates it; ≥ and ≤ were set here for values at or beyond the usual limits of such assays
# HLA-A*69:01 = assay: as above
# HLA-A*02:01 [1] = assay: as above
# HLA-C*03:03 = assay: as above
# HLA-A*68:01 = assay: IEDB peptide-MHC binding, purified MHC/competitive/radioactivity; filed as Kd, often an IC50 or EC50 that approximates it; ≥ and ≤ were set here for values at or beyond the usual limits of such assays; conditions: source organism: Vaccinia virus WR
# HLA-A*31:01 [2] = assay: as above; conditions: source organism: Vaccinia virus WR
# HLA-A*33:01 = assay: as above; conditions: source organism: Vaccinia virus WR
# HLA-B*15:01 [3] = assay: IEDB peptide-MHC binding, purified MHC/competitive/fluorescence; ≥ and ≤ were set here for values at or beyond the usual limits of such assays; conditions: source organism: Vaccinia virus Copenhagen
# HLA-A*03:01 [4] = assay: as above; conditions: source organism: Vaccinia virus Copenhagen
# HLA-A*11:01 [5] = assay: as above; conditions: source organism: Vaccinia virus Copenhagen
# HLA-A*01:01 [6] = assay: as above
# HLA-B*27:05 = assay: IEDB peptide-MHC binding, purified MHC/direct/fluorescence; filed as Kd, often an IC50 or EC50 that approximates it; ≥ and ≤ were set here for values at or beyond the usual limits of such assays; conditions: source organism: Salmonella enterica
# HLA-B*15:01 [7] = assay: as above
# HLA-B*08:01 [8] = assay: as above; conditions: source organism: Salmonella enterica
# HLA-A*03:01 [9] = assay: as above; conditions: source organism: Salmonella enterica
# HLA-A*26:01 = assay: as above
# HLA-B*58:01 = assay: as above
# HLA-B*07:02 [10] = assay: as above; conditions: source organism: Salmonella enterica
# HLA-A*24:03 = assay: as above
# HLA-B*44:02 = assay: as above; conditions: source organism: Salmonella enterica
# HLA-A*11:01 [11] = assay: as above
# HLA-A*31:01 [12] = assay: as above
# HLA-B*40:01 = assay: as above; conditions: source organism: Salmonella enterica
# HLA-A*01:01 [13] = assay: as above
# HLA-C*05:01 = assay: as above
# HLA-B*15:42 = assay: IEDB peptide-MHC binding, purified MHC/competitive/fluorescence; filed as Kd, often an IC50 or EC50 that approximates it; ≥ and ≤ were set here for values at or beyond the usual limits of such assays; conditions: source organism: Giardia lamblia ATCC 50803
# HLA-B*83:01 = assay: as above; conditions: source organism: Giardia lamblia ATCC 50803
# HLA-B*45:06 = assay: as above; conditions: source organism: Giardia lamblia ATCC 50803
# HLA-B*51:01 [14] = assay: IEDB peptide-MHC binding, purified MHC/direct/fluorescence; filed as Kd, often an IC50 or EC50 that approximates it; ≥ and ≤ were set here for values at or beyond the usual limits of such assays; conditions: source organism: Giardia lamblia ATCC 50803
# HLA-B*08:01 [15] = assay: IEDB peptide-MHC binding, purified MHC/competitive/fluorescence; filed as Kd, often an IC50 or EC50 that approximates it; ≥ and ≤ were set here for values at or beyond the usual limits of such assays; conditions: source organism: Variola virus
# HLA-B*07:02 [16] = assay: as above; conditions: source organism: Variola virus
# HLA-B*15:17 = assay: IEDB peptide-MHC binding, purified MHC/direct/fluorescence; filed as Kd, often an IC50 or EC50 that approximates it; ≥ and ≤ were set here for values at or beyond the usual limits of such assays
# HLA-A*26:02 = assay: as above; conditions: source organism: Variola virus
# HLA-A*68:02 [17] = assay: as above; conditions: source organism: Camelpox virus M-96
# HLA-B*08:02 = assay: as above; conditions: source organism: Variola virus
# HLA-B*18:01 = assay: as above; conditions: source organism: Camelpox virus M-96
# HLA-A*26:03 = assay: as above; conditions: source organism: Variola virus
# HLA-B*57:01 = assay: as above
# HLA-B*46:01 = assay: IEDB peptide-MHC binding, purified MHC/competitive/fluorescence; filed as Kd, often an IC50 or EC50 that approximates it; ≥ and ≤ were set here for values at or beyond the usual limits of such assays; conditions: source organism: Mycobacterium tuberculosis variant bovis BCG str. Pasteur 1173P2
# HLA-C*07:02 = assay: IEDB peptide-MHC binding, purified MHC/direct/fluorescence; filed as Kd, often an IC50 or EC50 that approximates it; ≥ and ≤ were set here for values at or beyond the usual limits of such assays; conditions: source organism: Mycobacterium tuberculosis variant bovis BCG str. Pasteur 1173P2
# HLA-A*68:02 [18] = assay: IEDB peptide-MHC binding, purified MHC/competitive/fluorescence; filed as Kd, often an IC50 or EC50 that approximates it; ≥ and ≤ were set here for values at or beyond the usual limits of such assays; conditions: source organism: Entamoeba histolytica HM-1:IMSS
# HLA-B*51:01 [19] = assay: as above
# HLA-A*24:02 = assay: IEDB peptide-MHC binding, purified MHC/competitive/fluorescence; ≥ and ≤ were set here for values at or beyond the usual limits of such assays; conditions: source organism: Zaire ebolavirus
# HLA-B*35:01 = assay: IEDB peptide-MHC binding, purified MHC/competitive/fluorescence; filed as Kd, often an IC50 or EC50 that approximates it; ≥ and ≤ were set here for values at or beyond the usual limits of such assays; conditions: source organism: West Nile virus
# HLA-A*02:01 [20] = assay: IEDB peptide-MHC binding, purified MHC/competitive/fluorescence; ≥ and ≤ were set here for values at or beyond the usual limits of such assays; conditions: source organism: Zaire ebolavirus
# [21] = source organism: Vibrio vulnificus CMCP6
# [22] = source organism: Vibrio vulnificus
# [23] = source organism: Burkholderia mallei ATCC 23344
# [24] = source organism: Burkholderia mallei
# [25] = source organism: Vaccinia virus
# [26] = source organism: Salmonella enterica
# [27] = source organism: Salmonella enterica subsp. enterica serovar Typhimurium
# [28] = source organism: Mammarenavirus juninense
# [29] = source organism: Giardia lamblia ATCC 50803
# [30] = source organism: Camelpox virus M-96
# [31] = source organism: Marburg virus - Musoke, Kenya, 1980
# [32] = source organism: Zaire ebolavirus
# [33] = source organism: West Nile virus
sequence,measurement,setting,value
KLTSYSAGL,Kd,HLA-A*02:50; [21],≤ 0.1 nM
same,Kd,HLA-A*02:12; [21],7 nM
same,Kd,HLA-A*69:01; [22],15100 nM
same,Kd,HLA-A*02:01 [1]; [22],21 nM
YLACKQHAL,Kd,HLA-A*02:50; [23],≤ 0.1 nM
same,Kd,HLA-A*69:01; [24],292 nM
same,Kd,HLA-C*03:03; [23],24 nM
same,Kd,HLA-A*02:01 [1]; [24],62.5 nM
TLNHNCINV,Kd,HLA-A*02:50; [25],0.2 nM
same,Kd,HLA-A*02:12; [25],19 nM
same,Kd,HLA-A*69:01; source organism: Cowpox virus,136 nM
same,Kd,HLA-A*02:01 [1]; source organism: Cowpox virus,404 nM
VTAASPMLY,Kd,HLA-A*68:01,861 nM
same,Kd,HLA-A*31:01 [2],≥ 77900 nM
same,Kd,HLA-A*33:01,14500 nM
same,IC50,HLA-B*15:01 [3],4450 nM
same,IC50,HLA-A*03:01 [4],10500 nM
same,IC50,HLA-A*11:01 [5],1170 nM
same,IC50,HLA-A*01:01 [6]; source organism: Vaccinia virus Copenhagen,1290 nM
LLQGVPFHV,Kd,HLA-A*02:50; source organism: Salmonella enterica subsp. enterica serovar Paratyphi B str. SPB7,≤ 0.1 nM
same,Kd,HLA-B*27:05,≥ 20000 nM
same,Kd,HLA-B*15:01 [7]; [26],≥ 20000 nM
same,Kd,HLA-B*08:01 [8],≥ 20000 nM
same,Kd,HLA-A*03:01 [9],≥ 20000 nM
same,Kd,HLA-A*26:01; [26],≥ 20000 nM
same,Kd,HLA-B*58:01; [26],≥ 20000 nM
same,Kd,HLA-B*07:02 [10],≥ 20000 nM
same,Kd,HLA-A*24:03; [26],≥ 20000 nM
same,Kd,HLA-B*44:02,≥ 20000 nM
same,Kd,HLA-A*69:01; [27],289 nM
same,Kd,HLA-A*11:01 [11]; [26],≥ 20000 nM
same,Kd,HLA-A*31:01 [12]; [27],1810 nM
same,Kd,HLA-B*40:01,≥ 20000 nM
same,Kd,HLA-A*01:01 [13]; [26],≥ 20000 nM
same,Kd,HLA-A*02:01 [1]; [27],109 nM
RATQPAAEF,Kd,HLA-C*05:01; [28],1740 nM
same,Kd,HLA-B*58:01; [28],12.9 nM
FPMIIGSEL,Kd,HLA-B*15:42,≥ 5000 nM
same,Kd,HLA-B*83:01,156 nM
same,Kd,HLA-B*45:06,≥ 5000 nM
same,Kd,HLA-B*51:01 [14],2130 nM
same,Kd,HLA-C*05:01; [29],≥ 20000 nM
IFLIITKVF,Kd,HLA-B*08:01 [15],≥ 20000 nM
same,Kd,HLA-B*07:02 [16],3000 nM
same,Kd,HLA-B*15:17; [30],≥ 20000 nM
same,Kd,HLA-B*15:01 [7]; [30],≥ 20000 nM
same,Kd,HLA-A*26:02,≥ 20000 nM
same,Kd,HLA-A*68:02 [17],≥ 20000 nM
same,Kd,HLA-A*26:01; source organism: Variola virus,≥ 20000 nM
same,Kd,HLA-B*58:01; [30],≥ 20000 nM
same,Kd,HLA-A*24:03; [30],1100 nM
same,Kd,HLA-B*08:02,≥ 20000 nM
same,Kd,HLA-B*18:01,≥ 20000 nM
same,Kd,HLA-A*69:01; [30],≥ 20000 nM
same,Kd,HLA-A*11:01 [11]; [30],≥ 20000 nM
same,Kd,HLA-A*26:03,≥ 20000 nM
same,Kd,HLA-A*31:01 [12]; [30],≥ 20000 nM
same,Kd,HLA-B*57:01; [30],≥ 20000 nM
same,Kd,HLA-A*01:01 [13]; [30],≥ 20000 nM
same,Kd,HLA-A*02:01 [1]; [30],≥ 20000 nM
FLLDGGAPF,Kd,HLA-B*46:01,21.2 nM
same,Kd,HLA-C*07:02,527 nM
same,Kd,HLA-C*03:03; source organism: Mycobacterium tuberculosis variant bovis BCG str. Pasteur 1173P2,≤ 1 nM
KIDDMIEEV,Kd,HLA-C*05:01; source organism: Vaccinia virus WR,124 nM
FLLDYEGTL,Kd,HLA-A*69:01; [31],437 nM
same,Kd,HLA-C*03:03; source organism: Orthomarburgvirus marburgense,≤ 1 nM
same,Kd,HLA-A*02:01 [1]; [31],6 nM
MVPKSFTYS,Kd,HLA-A*68:02 [18],76.2 nM
MPVSIPTPI,Kd,HLA-B*51:01 [19]; [29],340 nM
same,Kd,HLA-C*05:01; [29],≥ 20000 nM
EIDTTIGEW,IC50,HLA-A*24:02,≥ 81700 nM
same,IC50,HLA-A*01:01 [6]; [32],≥ 494000 nM
LAVSAYTPW,Kd,HLA-B*35:01,5.7 nM
same,Kd,HLA-B*51:01 [19]; [33],≥ 20000 nM
same,Kd,HLA-B*15:17; [33],5 nM
same,Kd,HLA-B*57:01; [33],86 nM
same,Kd,HLA-C*03:03; [33],≤ 1 nM
LFEVDNLTY,IC50,HLA-A*24:02,66500 nM
same,IC50,HLA-A*01:01 [6]; [32],69100 nM
same,IC50,HLA-A*02:01 [20],≥ 210000 nM
